Data published in patent US20260008852A1.

B1: 40579p1.H11 (scFv, V domains shown)
VH: EVQLLESGGGLVQPGGSLRLSCAASGFTFDDYGMSWVRQAPGKGLEWVSAIRSKASSYATYYADSVKGRFTVSRDNSENTLYLQMNSLRAEDTAVYYCAKHRSNYYFMDVWGQGTTVTVSS
VL: EIVLTQSPGTLSLSPGERATLSCRASQSVGSDLAWYQQRPGQAPRLLIYAASSRATDIPDRFSGSGSGTDFTLTISSLQSEDFAVYYCQQYYSWPPLTFGGGTKVEIK
B2: 40633p1.2.C11 (scFv, V domains shown)
VH: EVQLLESGGGLVQPGGSLRLSCAASGFTFSSYWMSWVRQAPGKGLEWVAGINRNGGSTYYADSVKGRFTISRDNSENTLYLQVNSLRAEDTAVYYCARWNDYDIMDVWGQGTTVTVSS
VL: QSVLTQPSSASGTPGQRVTISCSGSSSNVGRRAVNWYQQLPGTAPKLLISNSQRPSGVPDRFSGSKSGTSASLAISGLQSEDEADYYCATWDASLNSWVFGGGTKLTVL

What was measured:
[1] = target: His-tagged human B7-H3 (human) (UniProt Q5ZPR3); experiment: ELISA OD450 on hu B7-H3 over OD450 on mu B7-H3
[2] = target: His-tagged human B7-H3 (human) (UniProt Q5ZPR3); experiment: ELISA, coated His-tagged antigen, scFv-Fc 1 ug/ml
[3] = target: His-tagged mouse B7-H3 (mouse) (UniProt Q8VE98); experiment: ELISA, coated His-tagged antigen, scFv-Fc 1 ug/ml
Chain of His-tagged mouse B7-H3 (mouse) (Q8VE98 29-244 limits assumed): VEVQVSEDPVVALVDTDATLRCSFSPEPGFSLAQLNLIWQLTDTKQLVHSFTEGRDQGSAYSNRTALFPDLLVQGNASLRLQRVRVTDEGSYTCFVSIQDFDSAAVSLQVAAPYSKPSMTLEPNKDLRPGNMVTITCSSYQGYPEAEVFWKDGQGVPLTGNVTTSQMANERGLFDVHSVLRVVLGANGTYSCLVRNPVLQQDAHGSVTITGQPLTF

Chain of His-tagged human B7-H3 (human) (Q5ZPR3 other isoform, or with tags, fused parts or gaps limits assumed): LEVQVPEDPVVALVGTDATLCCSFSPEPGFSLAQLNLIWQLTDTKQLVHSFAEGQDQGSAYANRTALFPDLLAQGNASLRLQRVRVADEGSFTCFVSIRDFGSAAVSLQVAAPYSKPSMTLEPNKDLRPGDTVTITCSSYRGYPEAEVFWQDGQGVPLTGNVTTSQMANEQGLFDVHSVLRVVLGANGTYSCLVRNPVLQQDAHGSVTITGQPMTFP

Binder	hu:mu ratio [1]	ELISA OD450 @ 1 ug/ml [2]	ELISA OD450 @ 1 ug/ml [3]
B1	1.51	0.077 OD450	–
B2	1.09	0.049 OD450	0.045 OD450
